In patent publication US20230040148 (published 2023):

Assays:
[1] = target: T1, LbCas12a N527R/D559P/E795L (Lachnospiraceae bacterium ND2006); experiment: cell_activity; 5 uM RNP, HEK293, 48 h, T7EI; WT 80.35; PAM not stated
[2] = target: T2, LbCas12a N527R/E795L (Lachnospiraceae bacterium ND2006); experiment: as above
[3] = target: T3, LbCas12a N527R (Lachnospiraceae bacterium ND2006); experiment: as above
[4] = target: T4, LbCas12a D559P (Lachnospiraceae bacterium ND2006); experiment: as above
[5] = target: T5, LbCas12a E795L (Lachnospiraceae bacterium ND2006); experiment: as above
[6] = target: LbCas12a N527R/D559P (Lachnospiraceae bacterium ND2006); experiment: as above
[7] = target: T6, LbCas12a D559P/E795L (Lachnospiraceae bacterium ND2006); experiment: as above
[8] = target: T1, LbCas12a N527R/D559P/E795L; experiment: cell_activity; 5 uM RNP, HEK293, 48 h, T7EI; WT 78.5; PAM not stated
[9] = target: T2, LbCas12a N527R/E795L; experiment: as above
[10] = target: T3, LbCas12a N527R; experiment: as above
[11] = target: T4, LbCas12a D559P; experiment: as above
[12] = target: T5, LbCas12a E795L; experiment: as above
[13] = target: T6, LbCas12a D559P/E795L; experiment: as above

Binder | activity [1] [% cleavage] | activity [2] [% cleavage] | activity [3] [% cleavage] | activity [4] [% cleavage] | activity [5] [% cleavage] | activity [6] [% cleavage] | activity [7] [% cleavage] | activity [8] [% cleavage] | activity [9] [% cleavage] | activity [10] [% cleavage] | activity [11] [% cleavage] | activity [12] [% cleavage] | activity [13] [% cleavage]
LbCpf1 HPRT 38115-AS-23 crRNA ; HPRT 38115-AS target (protospacer as DNA, 23 nt) (ssRNA ; dsDNA, Alt-R end modifications on 5' and 3' ends) RNA: UAAUUUCUACUAAGUGUAGAUACACACCCAAGGAAAGACUAUGA DNA 1: ACACACCCAAGGAAAGACTATGA DNA 2: TCATAGTCTTTCCTTGGGTGTGT | 60.3 | 39.3 | 35 | 78 | 78.2 | 9.39 | 79.3 |  |  |  |  |  | 
LbCpf1 HPRT 38330-AS-23 crRNA ; HPRT 38330-AS target (protospacer as DNA, 23 nt) (ssRNA ; dsDNA, Alt-R end modifications on 5' and 3' ends) RNA: UAAUUUCUACUAAGUGUAGAUGGUUAAAGAUGGUUAAAUGAUUG DNA 1: GGTTAAAGATGGTTAAATGATTG DNA 2: CAATCATTTAACCATCTTTAACC |  |  |  |  |  |  |  | 28.8 | 21.2 | 9.6 | 58.4 | 79.5 | 75.8
